B1: COVIC-322 (antibody)
chain 1: EVQLLESGGGLVQPGGSLRLSCAASGRTFSEYAMGWFRQAPGKGLEFVSTISWSGGSTYYADSVKGRFTISRDNSKNTLYLQMNSLRAEDTAVYYCAAAGLGTVVSEWDYDYDYWGQGTLVTVSSGGGGSGGGGSASTKGPSVFPLAPSSKSTSGGTAALGCLVKDYFPEPVTVSWNSGALTSGVHTFPAVLQSSGLYSLSSVVTVPSSSLGTQTYICNVNHKPSNTKVDKKVEPKSCDKTHTAPELLGGPSVFLFPPKPKDTLMISRTPEVTCVVVDVSHEDPEVKFNWYVDGVEVHNAKTKPREEQYNSTYRVVSVLTVLHQDWLNGKEYKCKVSNKALPAPIEKTISKAKGQPREPQVYTLPPSRDELTKNQVSLTCLVKGFYPSDIAVEWESNGQPENNYKTTPPVLDSDGSFFLYSKLTVDKSRWQQGNVFSCSVMHEALHNHYTQKSLSLSPGKKKKPLDGEYFTLQIRGRERFEMFRELNEALELKDAQAGKEPG
chain 2: EVQLLESGGGLVQPGGSLRLSCAASGRTFSEYAMGWFRQAPGKGLEFVSTISWSGGSTYYADSVKGRFTISRDNSKNTLYLQMNSLRAEDTAVYYCAAAGLGTVVSEWDYDYDYWGQGTLVTVSSGGGGSGGGGSKRTVAAPSVFIFPPSDEQLKSGTASVVCLLNNFYPREAKVQWKVDNALQSGNSQESVTEQDSKDSTYSLSSTLTLSKADYEKHKVYACEVTHQGLSSPVTKSFNRGEC
B2: COVIC-392 (antibody, V domains shown)
VH: QVQLLESGGGLVQPGRSLRLSCAASGFTFDDYAMHWVRQPPGKGLEWVSGSSWNSGSVVYADSVKGRFTISRDSAKNSLHLQMNSLRVEDTALYYCAKAVDPTRGSYSPDYGFDIWGQGTMVTVS
VL: not shown
B3: COVIC-32 (antibody, V domains shown)
VH: QVQLLESGGGLVQPGGSLRLSCAASGFTFSSYAMSWVRQAPGKGLEWASAISGSGGSTYYADSVEGRFTISRDNSKNTLYLQMNSLRAEDTAVYYCAKDTGYCGDDCYIKLIRGGPDYWGQGTLVTVSS
VL: DIVMTQSPLSLPVTLGQPASISCRSSQSLVYSDGNTFLNWFQQRPGQSPRRLIYQVSNRDSGVPDRFSGSGSGTDFTLKISRVEAEDVGVYYCMQGTHWPRTFGQGTKLEIK
B4: COVIC-317 (antibody)
chain: EVQLLESGGGLVQPGGSLRLSCAASGRTFSEYAMGWFRQAPGKGLEFVSTISWSGGSTYYADSVKGRFTISRDNSKNTLYLQMNSLRAEDTAVYYCAAAGLGTVVSEWDYDYDYWGQGTLVTVSSGGGGSGGGGSASTKGPSVFPLAPSSKSTSGGTAALGCLVKDYFPEPVTVSWNSGALTSGVHTFPAVLQSSGLYSLSSVVTVPSSSLGTQTYICNVNHKPSNTKVDKKVEPKSCDKTHTAPELLGGPSVFLFPPKPKDTLMISRTPEVTCVVVDVSHEDPEVKFNWYVDGVEVHNAKTKPREEQYNSTYRVVSVLTVLHQDWLNGKEYKCKVSNKALPAPIEKTISKAKGQPREPQVYTLPPSRDELTKNQVSLTCLVKGFYPSDIAVEWESNGQPENNYKTTPPVLDSDGSFFLYSKLTVDKSRWQQGNVFSCSVMHEALHNHYTQKSLSLSPGKKKKPLDGEYFTLQIRGRERFEMFRELNEALELKDAQAGKEPGGGGGSGGGGSEVQLLESGGGLVQPGGSLRLSCAASGRTFSEYAMGWFRQAPGKGLEFVSTISWSGGSTYYADSVKGRFTISRDNSKNTLYLQMNSLRAEDTAVYYCAAAGLGTVVSEWDYDYDYWGQGTLVTVSS
B5: COVIC-22 (antibody, V domains shown)
VH: EVQLLESGGGLVQPGGSLRLSCAASGFTFSRHAMNWVRQAPGKGLEWVSGISGSGDETYYADSVKGRFTISRDNSKNTLYLQMNSLRAEDTAVYYCARDLPASYYDSSGYYWHNGMDVWGQGTLVTVSS
B6: COVIC-238 (antibody, V domains shown)
VH: QVQLVQSGSELKKPGASVKVSCKASGYTFTTYVMNWVRQAPGQGLEWMGWINTNTGNPTYAQGFTGRFVFSLDTSVSTASLQISSLKAEDTAVYYCSSEITTLGGMDVWGQGTTVTVSS
VL: ASYVLTQPPSVSVAPGKTARITCGGNNIGSKSVHWYQQKPGQAPVLVIYYDSDRPSGIPERFSGSNSGNTATLTISGVEAGDEADYYCQVWDSISDHRVFGGGTKLTVLG
B7: COVIC-312 (antibody)
chain 1: QVQLVQSGAEVKKPGSSVKVSCKASGGTFGISWVRQAPGQGLEWMGRIIPILGTANHAQKFQGRVTITADKSTGTVYMELSSLRSEDTAVYYCARDGDSGSYYETLGFDYWGQGTLVTVSSGGGGSGGGGSGGGGEVQLVESGGGLVKPGGSLRLSCAASGFTFSPYSMNWVRQAPGKGLEWVSSISVSNIYTYYADSVKGRFTISRDNAKNSLYLQMNSLRAEDTAIYYCARDLKKGGIQYDAFDIWGQGTVVTVSS
chain 2: QSALTQPPSASGSPGQSVTISCTGTSSDVGGYNYVSWYQQHPGKAPKLMIYEVNKRPSGVPDRFSGSKSGNTASLTVSGLQAEDEADYYCSSYAGSNNLVFGGGTKLTVLGGGGSGGGGSGGGGEIVLTQSPATLSLSPGERATLSCRASQSVNDYLAWYQQKPGQAPRLLIYDASNRATGFPARFSGSGSGTDFTLTISSLEPEDFAVYYCQQRSNWPPTFGQGTRLEIK
B8: COVIC-336 (antibody, V domains shown)
VH: QITLKESGPTLVKPTQTLTLTCTFSGFSLSSGGVGVGWIRQPPGKALEWLALIYWDDDKRYRPSLKSRLTITRDTSTNQVVLTMTNMDPVDTATYFCARHQIATVFDHWGQGTLVTVSS
VL: QSALTQPASVSGSPGQSITISCTGTSSDVGGYNYVSWYQQHPGKAPKLMIYEVSNRPSGVSSRFSGSKSGNTASLTISGLQAEDEADYYCSSYTRSSPLVAFGGGTKVTVL
B9: COVIC-162 (antibody, V domains shown)
VH: QLQLQESGPGLVKPSETLSLTCTVSGGSISNSNYYWGWIRQPPGKGLEWIGSIYYSGRTYYNPSLKSRVTISVDTSKNQFSLKLSSVTAADTAVYYCARMGLLWFGEFYGMDVWGQGTTVTVSS
VL: DIQMTQSPSSLSASVGDRVTITCRASQGISSWLAWYQQKPEKAPKSLIYDASSLQRGVPSRFSGSGSGTDFTLTISSLQPEDFASYYCQQYNSYPLTFGGGTRVEIKR
B10: COVIC-296 (antibody, V domains shown)
VH: EVQLVESGGGLVQPGGSLRLSCAASGITVSSNYMNWVRQAPGKGLEWVSVIYSGGSTFYADSVKGRFTVSRHNSKNTLYLQMNSLRVEDTAVYYCAREGLVGTALAFDYWGQGNLVTVSS
VL: DIQMTQSPSSLSASVGDRVTITCRASQSINNYLNWYQQKPGKAPNLLIYAASSLQSGVPSRFSGSGSGTDFTLTINSLQPEDFATYYCQQSYSTPPYTFGQGTKLEIK
B11: COVIC-63 (antibody)
chain: QVQLQESGGGLVQAGGSLRLSCAASGRTFSEYAMGWFRQAPGKEREFVATISWSGGSTYYTDSVKGRFTISRDNAKNTVYLQMNSLKPDDTAVYYCAAAGLGTVVSEWDYDYDYWGQGTQVTVSSGGSGGSQVQLQESGGGLVQAGGSLRLSCAASGRTFSEYAMGWFRQAPGKEREFVATISWSGGSTYYTDSVKGRFTISRDNAKNTVYLQMNSLKPDDTAVYYCAAAGLGTVVSEWDYDYDYWGQGTQVTVSSGGGGSGGGGSEPKSCDKTHTCPPCPAPELLGGKKKPLDGEYFTLQIRGRERFEMFRELNEALELKDAQAGKEPG
B12: COVIC-305 (antibody, V domains shown)
VH: QVQLVQSGAEVKKPGSSVRVSCKVSGYTFTGYYMHWVRQAPGQGLEWMGIINPSGGSTSYAQKFQGRVTMTRDTSTSTVYMELSSLRSEDTAVYYCARVRVGASDAFDIWGQGTMVTVSS
VL: SYVLTQPPSVSVAPGQTARITCGGNNIGSKSVHWYQQKPGQAPVLVVYDDSDRPSGIPERFSGSNSGNTATLIISRVEAGDEADYYCQVWDSSSVHYVFGTGTKLTVLG
B13: COVIC-265 (antibody, V domains shown)
VH: QVQLVESGGGLVQPGGSLRLSCTVSGIDLSSYAMGWVRQAPGKGLEYIGIISGSGSTDYANWAKGRFTISRDNSKNTLYLQMNSLRAEDTAVYYCARAGYGVYGYAKYYGMDPWGQGTLVTVSS
VL: DIQMTQSPSSLSASVGDRVTITCKASEDIHYGLNWYQQKPGKAPKLLIYGATTLESGVPSRFSGSGSGTDFTLTISSLQPEDFATYYCQQGYSTPLTFGGGTKVEIK
B14: COVIC-292 (antibody, V domains shown)
VH: QMQLVQSGPEVKKPGTSVKVSCKASGFTFSGSAVQWVRQARGQRLEWIGWIVVGSGNTNYAQRFQERVTITRDMSTSTAYMELSSLRSEDTAVYYCAAPYCSSTSCRDGFDIWGQGTMVTVSS
VL: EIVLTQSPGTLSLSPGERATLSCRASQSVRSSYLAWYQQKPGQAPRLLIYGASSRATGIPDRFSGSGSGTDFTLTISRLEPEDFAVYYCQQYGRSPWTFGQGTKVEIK
B15: COVIC-156 (antibody, V domains shown)
VH: EVQLVESGGGLIQPGGSLRLSCAASGVTVSSNYMNWVRQAPGKGLEWVSVIYSGGSTYYADSVKGRFTISRDNSKNTLFLQMNSLRAEDSAVYYCARDLGPYGVDVWGQGTTVTVSS
VL: DIQLTQSPSFLSASVGDRVTITCWASQGISSYLAWYQQKPGKAPKLLIYAASTLQSGVPSRFSGSGSGTEFTLTISSLQPEDFATYYCQELNSYPLTFGQGTRLEIKR
B16: COVIC-153 (antibody, V domains shown)
VH: EVQLVESGGGLIQPGGSLRLSCAASGLTVSSNYMSWVRQAPGKGLEWVSIIYSGGSTYYADSVKGRFTISRDNSKNTLYLQMNSLRAEDTAVYYCARLGGYYYYGMDVWGQGTTVTVSS
VL: DIQMTQSPSSLSASVGERVTITCQASQDIRNYLNWYQKKPGKAPKLLIYDSSNLETGVPSRFSGSGSGTDFTFTISSLQPEDIATYYCQQYDNLPITFGQGTRLEIKR
B17: COVIC-333 (antibody, V domains shown)
VH: QVQLVQSGAEVKKPGSSVRVSCKASGGTFISYTFNWVRQAPGQGLEWMGRIIPIFGIVNYAQKFQGRVTIAADKSTSTAYMELSSLRSEDTAMYYCATATVDYDSGEEQSSFDPWGQGTLVTVSS
VL: EIVLTQSPGTLSLSPGERATLSCRASQSVSSSYLAWYQQKAGQTPRLLIYAASSRATGVPDRFSGSGSGTDFTLTISRLEAEDFAVYYCQQSWTFGQGTKVEIK
B18: COVIC-121 (antibody)
chain: QVQLQESGGGLVQAGGSLRLSCAASGRTFSEYAMGWFRQAPGKEREFVATISWSGGSTYYTDSVKGRFTISRDNAKNTVYLQMNSLKPDDTAVYYCAAAGLGTVVSEWDYDYDYWGQGTQVTVSSGGSGGSQVQLQESGGGLVQAGGSLRLSCAASGRTFSEYAMGWFRQAPGKEREFVATISWSGGSTYYTDSVKGRFTISRDNAKNTVYLQMNSLKPDDTAVYYCAAAGLGTVVSEWDYDYDYWGQGTQVTVSSGGGGSGGGGSKKKPLDGEYFTLQIRGRERFEMFRELNEALELKDAQAGKEPGGGGGSGGGGSQVQLQESGGGLVQAGGSLRLSCAASGRTFSEYAMGWFRQAPGKEREFVATISWSGGSTYYTDSVKGRFTISRDNAKNTVYLQMNSLKPDDTAVYYCAAAGLGTVVSEWDYDYDYWGQGTQVTVSS

Molecular target: SARS-CoV-2 spike RBD (Wuhan-Hu-1) (Severe acute respiratory syndrome …, UniProt P0DTC2)
Assay: SPR

Compared with B1, B2 is 350-fold lower in Kd: 30.2 nM for the first, 0.0871 nM for the second.

Compared with B3, B4 is 23-fold higher in Kd: 1.76 nM for the first, 41.3 nM for the second. The first binds more tightly here.

Compared with B5, B6 is 2.1-fold higher in Kd: 0.414 nM for the first, 0.873 nM for the second. The first binds more tightly here.

Going from B7 to B8, the Kd rises from 0.347 nM to 2.14 nM (6.2-fold). The first binds more tightly here.

Going from B9 to B10, the Kd falls from 191 nM to 0.501 nM (380-fold).

Compared with B11, B12 is 25-fold lower in Kd: 185 nM for the first, 7.27 nM for the second. The second binds more tightly here.

First: B13
Second: B14
The Kd of the first is 4.3-fold lower: 1.55 nM for the first, 6.71 nM for the second. The first binds more tightly here.

First: B15
Second: B16
The Kd of the first is 4.6-fold lower: 0.446 nM for the first, 2.06 nM for the second. The first binds more tightly here.

Compared with B17, B18 is 18000-fold higher in Kd: 0.0111 nM for the first, 195 nM for the second.

Source: PMC12014896 (2025)
